Experimental data reported in patent US20170248602A1.

What was measured:
[1] = molecular target: SNAP-25 peptide comprising amino acids 134-197 of SEQ ID NO:5 (human); assay: SPR (BIAcore 3000), peptide on CM5 chip, 1:1 fit
[2] = molecular target: SNAP-25 peptide comprising amino acids 134-206 of SEQ ID NO:5 (human); assay: SPR (BIAcore 3000), peptide on CM5 chip, 1:1 fit

Substance	Kd [1] [µM]	koff [1] [s⁻¹]	kon [1] [M⁻¹ s⁻¹]	Kd [2] [µM]	koff [2] [s⁻¹]	kon [2] [M⁻¹ s⁻¹]
MC-6050 mouse α-SNAP-25 monoclonal antibody (Research & Diagnostic Antibodies)	0.000497	0.000882	1.78e+06	19.8	0.00607	306
MC-6053 mouse α-SNAP-25 monoclonal antibody (Research & Diagnostic Antibodies)	0.000508	0.00118	2.32e+06	0.24	2.56e-05	
